According to the supplement of paper PMC12042874:
± gives the uncertainty stated by the source.

Assay: amyloid nucleation score (Sup35N fusion, yeast selection) (log enrichment); library NNK2; higher = more nucleation; inactive = no reads after selection
Method in brief: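 Growth for 7 days at 30°C on medium lacking adenine and uracil followed a 24-hour induction with 100 μM copper sulfate of psi-negative yeast expressing peptides of 20 random codons fused to Sup35N. Input and output plasmid inserts were sequenced with Illumina, and sequences with under 100 input reads were excluded. Nucleation score is the DiMSum log enrichment of output over input reads, centred on the mode score of non-aggregating sequences.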

In order of rising amyloid nucleation score:
1. SFLFVFSRTGFDCLVDFCFE  -1.76 ± 0.75
2. SETLFEYS  -1.55 ± 0.55
3. SLSPIYDDLASVVAGTYEIK  -1.27 ± 0.75
4. SFFQSVMPYHLVYLGQILLN  -1.25 ± 0.34
5. SLNKNINRYFGFWYPDSPLL  -1.22 ± 0.78
6. SSRLAKIHSMGWFFIFLGIS  -1.22 ± 1
7. SIAKFGWTIGRLGYIHIFIL  -1.16 ± 1.1
8. SFNWNC  -1.15 ± 0.76
9. SNGMRNCKVCEFLLRLYASY  -1.15 ± 0.55
10. SGRRLRGSKVSGWR  -1.12 ± 0.76
11. SGYSPSLFCKVFPWANELCS  -1.12 ± 1.1
12. SLDSIFCLTENISYQGIWCR  -1.12 ± 0.28
13. SFVSTVFMGRVFMQHAISTR  -1.08 ± 0.55
14. SESYVLYNIFGFSVKLDEHG  -1 ± 1
15. SSMRRGVIRRCNYKL  -0.992 ± 0.24
16. SSMVQR  -0.917 ± 0.55
17. SELLGLSIKAIYICCMSQME  -0.9 ± 0.61
18. SHEGGD  -0.856 ± 0.34
19. SEKGKEYSSVDMGQNGNTNM  -0.829 ± 0.63
20. SKLVSYIDWVGSRILRYTCV  -0.801 ± 1.1
21. SHFGLDADWVEVPYYRFFRY  -0.8 ± 1
22. SFGWDYVDPQLKNTCTHCRV  -0.795 ± 0.48
23. SNYGCDQWWNITWFE  -0.791 ± 0.61
24. SGRLNVSLLGVDSFYTELCA  -0.787 ± 0.54
25. SIGGMMVPLISLKYSY  -0.784 ± 1.1
26. SSFNTDFACSWVGYMAVVSM  -0.771 ± 1.1
27. SLWKLGSLMSTFFEL  -0.758 ± 0.45
28. SIFSIFWYV  -0.744 ± 0.5
29. SGYFFPRL  -0.73 ± 1.1
30. SGVIHSVFVWKCLITGGM  -0.711 ± 0.38
31. SSTFPPF  -0.691 ± 0.41
32. SGRPHDCPHWRFFRSIKGLI  -0.676 ± 0.48
33. SFNTLCLRKC  -0.65 ± 0.37
34. SILDVCVSVT  -0.641 ± 0.55
35. SLYVKFPFMSDWLSMNHRMN  -0.64 ± 0.34
36. SFAYVMCLSG  -0.635 ± 0.55
37. SQHMLEL  -0.633 ± 1.1
38. SLWVMKCDKDTKYADRSFTL  -0.632 ± 1.1
39. SILGMG  -0.555 ± 0.28
40. SQRNTLEFVLAGYKTTLVIS  -0.549 ± 0.27
41. SSSFLL  -0.545 ± 0.76
42. SEFGSNEYRDGLGVYYGST  -0.542 ± 0.33
43. SKQCSKILTIKRMISLTGNE  -0.542 ± 0.49
44. SFSVLLADGQYRCYLLDSVL  -0.516 ± 0.48
45. SSRLALEVDKATKRVW  -0.474 ± 1.1
46. SGNVYFLQNRFSVAKQNYTL  -0.448 ± 0.79
47. SFRLQIRV  -0.417 ± 0.23
48. SSFSHLSNAIGMPFICNCEP  -0.385 ± 0.45
49. SNFQYSIKGQADRLPIVLVL  -0.373 ± 1
50. SGPSFILSWS  -0.371 ± 0.63
51. SLGHGKYMVCWGWYALGFYK  -0.368 ± 0.28
52. SLLWFKTVSLLRYNQF  -0.363 ± 0.65
53. SNKHCWWLDCKHLRIMPRCD  -0.363 ± 0.37
54. SFKLGSHVSDKKIGMDLCFT  -0.361 ± 0.4
55. SLTLHLSEWGAISPN  -0.347 ± 1
56. SRSYSNLWLGAHVLTRLRHD  -0.337 ± 1.1
57. SILSRCIRQVLFREPDVWRS  -0.32 ± 0.48
58. SMFFYSFNWLQFYFRVDVHW  -0.311 ± 1.1
59. SLRNDGFNLDPVLHALFVEL  -0.306 ± 0.63
60. SLGNVHRLL  -0.246 ± 0.79
61. SLTLLGLNR  -0.22 ± 0.22
62. SPTNIRP  -0.185 ± 0.47
63. SLNDKFSLMGLICFWWWCLV  -0.184 ± 0.79
64. SRFCEH  -0.164 ± 0.39
65. SNSNTSEWKTG  -0.156 ± 0.79
66. SGFSVTNCGN  -0.155 ± 0.26
67. SSPLVNRFPEGVYMNCK  -0.15 ± 0.49
68. SFDVWAALNENLPHISYFDQ  -0.14 ± 1.1
69. SGNSENSTLVKNYFSTLSLS  -0.124 ± 0.5
70. SHSYFSYTFQILLCEAVRGG  -0.124 ± 0.76
71. SLMETGYTPSRERMMHHM  -0.095 ± 0.33
72. SQVQSFIFSPGLNNSKAEFT  -0.078 ± 0.8
73. SFGVGEFDVNYLMERRF  -0.066 ± 0.4
74. SMMQLCV  -0.043 ± 0.54
75. SFIPRLYLV  -0.016 ± 0.53
76. SMNPWYIHWLI  0.003 ± 0.79
77. SLMDLT  0.02 ± 0.54
78. SLKLLYKMKLRSGQWAHIYR  0.03 ± 0.43
79. SLVENRVGISDVWKVSTLVG  0.042 ± 0.29
80. SRRVFVKWGNWSCFVVVEDN  0.072 ± 0.16
81. SFCCFFRSSLVFNFLVYISG  0.081 ± 1.1
82. SLEVCLIALDYGIQFLSTSA  0.099 ± 0.18
83. SIGHNSSF  0.117 ± 0.49
84. SMFGRRVWLDCNQPAGGRFA  0.118 ± 0.22
85. SLFLARRASTIARLFKRVYM  0.127 ± 0.63
86. SLHRAVYMGVKEYAILTEYG  0.127 ± 0.35
87. SHGWGTAAVWNIAVCRRSLG  0.129 ± 0.39
88. SKMPP  0.147 ± 1.1
89. SILSIYFDPYGCRL  0.164 ± 1.1
90. SSVEAELICLWKFCTTHVCT  0.168 ± 0.56
91. SILYVSRLTFR  0.218 ± 1.1
92. SHLCQLLDDAGLTEQNNSSG  0.234 ± 0.57
93. SLHMFLVIFSYLLVANRGKS  0.246 ± 0.65
94. SMRSIREEAVFVLIVVLRGR  0.261 ± 0.43
95. SGFLDLPVYPVYNHNRTKMI  0.267 ± 0.57
96. SFGTFVSGTALLGSMFCTTG  0.285 ± 0.29
97. SRNRFHSYLMSRCNMWQLHY  0.287 ± 0.33
98. SLSGHDLNWRFI  0.32 ± 0.74
99. SSLDNIWSTSD  0.337 ± 0.57
100. SHSSMVLRLVRVWCVCRG  0.342 ± 0.4
101. SLDSNNSVFFVCMYSYRGCS  0.359 ± 0.32
102. SSGLGTSVGSGILNSRDKDG  0.434 ± 0.51
103. SECCLVELINLTDGGMRGSA  0.5 ± 0.42
104. SFYWKMVW  0.512 ± 0.33
105. SSRWQFYGHF  0.518 ± 0.26
106. SIIVLRLLY  0.523 ± 0.51
107. SHSVRTMFPGGVNPRNIRGY  0.548 ± 0.64
108. SGIGY  0.561 ± 0.62
109. SGLRYFMFIISNSI  0.58 ± 0.22
110. SIYVSALDGMYSGGRDLWKR  0.601 ± 0.48
111. SHVTGR  0.602 ± 0.34
112. SISRFSFIRNTVGRD  0.637 ± 0.37
113. SIKPVLVSDFEKAV  0.661 ± 0.49
114. SMSCTTSASYHYLIS  0.697 ± 0.47
115. SQVLLGQCCMNHKDLSFVWI  0.708 ± 0.34
116. SMSSNVRTYNQFTHL  0.716 ± 0.53
117. SIVKLGVYHDLPA  0.721 ± 0.66
118. SIDEVGTANVPHGDW  0.741 ± 0.25
119. SFFWPPHLKRVLFLQLRTIC  0.777 ± 0.44
120. SRWPLGNMCGKPVEMPEKWS  0.836 ± 0.55
121. SSVLPGVRPGWNTMWWAACL  0.844 ± 0.39
122. SGFMLKWCKY  0.874 ± 0.55
123. SRRETTYHVVMDTFPTFAIT  0.943 ± 0.52
124. SRSVEGLKLWATNSAGHVVA  0.958 ± 0.3
125. SGPIEIRPCIPRKLVCSYRH  1.01 ± 0.53
126. SSDTIQYYSKQNMVRRENC  1.09 ± 0.52
127. SGTGKVCVVLVHKTSVQRKC  1.14 ± 0.3
128. SRSVIFSGESSHHADWFWTV  1.16 ± 0.68
129. SGFTVEESWTLLCRIVSREG  1.22 ± 0.34
130. SHYCGLVCLELEIWLYP  1.31 ± 0.18
131. SESWSSCIMA  1.33 ± 0.39
132. SPDATGYTNKVLGSRLIRRR  1.44 ± 0.38
133. SRYKWKTDVHTKWTCHF  1.73 ± 0.091
134. SLFLVRKDFMFCLTSLASVR  2.07 ± 0.16
135. SSPSYSSSSHKRTL  2.14 ± 0.25
136. SECENAFVGVPPWRTKILWS  2.19 ± 0.12
137. SEFRHGSYYSGVTEVRFWVQ  2.26 ± 0.11
138. SFRMKAALRRGNPNRAMDLT  2.33 ± 0.098
139. SLYFGIRYENRERCLFDLHV  2.42 ± 0.17
140. SMYNSHHSELVNWLNDYIWL  2.47 ± 0.1
141. SSGSRRLWSLRSRIAQRNMQ  2.83 ± 0.17
142. SDRGYSE  3.2 ± 0.14
143. SNLFGKLYVCFERDPRRKMM  3.32 ± 0.12
144. SFFNSWTHFGNCWFL  3.85 ± 0.065
145. SGWSNFVLCILHTTTGMKRH  3.95 ± 0.071
146. SHGAWTLFLSVIFCSAQYR  4.06 ± 0.087
147. SMRYNTSLRWDWVDQDAHRL  4.25 ± 0.068
148. SIVSHKVITISMFVI  4.5 ± 0.077
149. SHSYGTER  4.64 ± 0.074
150. SGYGAAITVNFDITEHGGM  5.06 ± 0.066
151. SLSLINRSVVDAWRGRDGVR  5.107 ± 0.034
152. SRRGDRSRWCEMVMDVKVCS  5.208 ± 0.041
153. SLVFVFVITKT  5.526 ± 0.05
154. SLRDARGRSYYRFNIISVML  5.591 ± 0.033
155. SLSFIGQIQSIITNRLNSGV  5.876 ± 0.039
156. SNTHISYYWGTNVWLHVDIN  6.194 ± 0.028
157. SQMYGLAYVCRQ  6.28 ± 0.076
158. SFKISDYDECSCFKFYMAPI  7.08 ± 0.082
159. SILHSPLSVVYASNISCLF  7.169 ± 0.066
160. SNLSLMFLLRVSIGDKKEEE  7.555 ± 0.034
161. SIVFFNRC  7.562 ± 0.05
162. SISVAVRSCQVTVPGKCDCA  7.756 ± 0.035
163. SMATTE  8.377 ± 0.063
164. SGYDFHVRMTCCIWH  9.166 ± 0.04

For SFASRYFSNKGGLHSDMCAS, the amyloid nucleation score was “inactive”.
With SLGALNKFPRILIVVRYRVC the amyloid nucleation score was “inactive”.
With SLMCIIFLQYWNLLLTIRVT the amyloid nucleation score was “inactive”.
With SPYRLSPTQTLSFCFIRHLP the amyloid nucleation score was “inactive”.
In the case of SQYMVGPGKRRKKSYGVG, the amyloid nucleation score is reported as “inactive”.
For SRKFFPVFN, the amyloid nucleation score was “inactive”.
For SRLAY, the amyloid nucleation score was “inactive”.
With SRRLCVTFAVFGSHKVLLS the amyloid nucleation score was “inactive”.
For SSKTGWSHGIMVQPK, the amyloid nucleation score was “inactive”.
For SSSMSESAT, the amyloid nucleation score was “inactive”.
